In one experiment the target is Common-His pHis peptide. The experiment in a line: BLI of pHis Fabs with phosphorylated Common-His peptide. Type of experiment: binding. The method, then: Next, we turned to further analyze the peptide selectivity using BLI experiments. Nine amino acid peptide sequences from proteins known to undergo histidine phosphorylation were selected and synthesized (SI Appendix, Table S2). The biotinylated peptides ACLY, NM23, SCS, and Common-His were chemically phosphorylated using phosphoramidate (8 h at 23 °C), and affinity-purified using immobilized 1-pHis IgGs or 3-pHis IgGs, as described above. BLI signal intensity was used to assess peptide binding to the Fabs. SC1-1, SC50-3, SC39-4, and SC56-2 had signal intensities in 0.5 to 1 nm for the association (SI Appendix, Fig. S10), whereas SC44-8 had maximum signal (2.0 nm) with ACLYana, which has GpHAGAG motif, and a signal of 0.5 nm for ACLY and SCS peptides, which have GpHAGAC and GpHAGAI motifs, respectively. However, there was no signal with NM23 and Common-His peptides, which lack this motif (SI Appendix, Fig. S10D). […] The binding kinetics of the pHis Fabs with this set of peptides indicate that the affinity values are similar for the pHis Fabs SC50-3, SC39-4, and SC56-2, consistent with them binding in a sequence-independent manner.
The binding kinetics of pHis Fabs with the peptides (pTza and pHis) were evaluated with an Octet RED96e (FortéBio). Streptavidin-coated biosensors (FortéBio) were presoaked in buffer containing 50 mM Hepes pH 8.0, 150 mM NaCl, 0.05% Tween-20, and 0.2% BSA for 15 min. The biotinylated pTza peptides or pHis peptides (20 nM) with and without phosphoramidate treatment were coated onto these streptavidin biosensors and analyzed for their binding to varying concentrations of the pHis Fabs with an association time of 120 s and dissociation time of 200 s. The entire set of experiments was repeated three times. The data were analyzed using the Octet software (FortéBio) and the rates of association and dissociation were obtained by global fitting data to the 1:1 Langmuir interaction model. […]
Peptides used in the DSF and BLI experiments were synthesized by the Salk Peptide Synthesis Core. These peptides were N-terminally biotinylated and C-terminally amidated. They were synthesized using standard Fmoc chemistry on a Gyros Protein Technologies Tribute peptide synthesizer with UV monitoring. […]
Phosphoramidation reaction. The small molecule phosphate donor phosphoramidate was used to phosphorylate the peptides containing His (Table S2). Phosphoramidate was synthesized based on Wei and Matthew’s method (2) and stored in a desiccator. 20 nanomoles of peptides were added to one micromole of the phosphoramidate in 50 mM Hepes pH 8.0 and 150 mM NaCl buffer. […]
(§1) 1H NMR of ACLYana peptide. A mixture of 5 mM ACLYana peptide and 250 mM phosphoramidate in 20 mM d18-Hepes, pH 8.0, 50 mM NaCl in D2O was incubated at 23 °C and monitored over the course of 29 h. […]

The next experiment concerns SCS pHis peptide. The experiment in a line: BLI of pHis Fabs with phosphorylated SCS peptide. The format is binding. The settings on record: GpHAGAI motif. The method, then:
Next, we turned to further analyze the peptide selectivity using BLI experiments. Nine amino acid peptide sequences from proteins known to undergo histidine phosphorylation were selected and synthesized (SI Appendix, Table S2). The biotinylated peptides ACLY, NM23, SCS, and Common-His were chemically phosphorylated using phosphoramidate (8 h at 23 °C), and affinity-purified using immobilized 1-pHis IgGs or 3-pHis IgGs, as described above. BLI signal intensity was used to assess peptide binding to the Fabs. […]
The binding kinetics of pHis Fabs with the peptides (pTza and pHis) were evaluated with an Octet RED96e (FortéBio). […] The biotinylated pTza peptides or pHis peptides (20 nM) with and without phosphoramidate treatment were coated onto these streptavidin biosensors and analyzed for their binding to varying concentrations of the pHis Fabs with an association time of 120 s and dissociation time of 200 s. […] The data were analyzed using the Octet software (FortéBio) and the rates of association and dissociation were obtained by global fitting data to the 1:1 Langmuir interaction model. […]
as §1

[1] abbreviates: BLI, phosphorylated, affinity-purified Common-His peptide, Table S7.

B1: SC44-8: Fab of rabbit 3-pHis-specific monoclonal antibody with proclivity for GpHAGA motif (antibody, V domains shown)
VH: QSVKESGRGLVQPGGSLTLTCTASGFSIDSYGFSWVRQAPGKGLEHIGYLTAGGRAFYASWAKSRSTITRNTNENTVTLKMTSLTAADTATYFCAKLGSGNPVAIWGPGTLVTVSS
VL: QVLTQTPSFTSAAVGGTVTINCQSSQSVWRNKNLAWYQQKPGQPPKRLIYAIATLDSGVPSRFSGSGSGTQFTLTISDVQCDDAATYYCVGHYGSENDAYYAFGGGTEVVVK
On to B1, for which the KD entry on Common-His pHis peptide (BLI, biotinylated Common-His peptide phosphorylated with phosphoramidate (8 h at 23 °C), affinity-purified on 1-pHis or 3-pHis IgGs (cognate isomer), Table S7) is on record as “No binding”. Further, in the experiment on Common-His pHis peptide (setting [1]), the ka result is “No binding” and the kd entry was “No binding”. In addition, in the experiment on Common-His pHis peptide (phosphorylated Common-His, lacks GpHAGA motif), the “BLI signal with Common-His peptide” value is recorded as “no signal”. The “BLI signal with SCS peptide” value with SCS pHis peptide was found to be 0.5 nm.
